US20220033501A1 (SHANGHAI PHARMAEXPLORER, published 2022)
Changes are numbered by the printed parent chain.

T1: monkey TIM-3 on CHOK1 stable cell line (CHOK1-cTIM-3) (monkey)
T1 chain: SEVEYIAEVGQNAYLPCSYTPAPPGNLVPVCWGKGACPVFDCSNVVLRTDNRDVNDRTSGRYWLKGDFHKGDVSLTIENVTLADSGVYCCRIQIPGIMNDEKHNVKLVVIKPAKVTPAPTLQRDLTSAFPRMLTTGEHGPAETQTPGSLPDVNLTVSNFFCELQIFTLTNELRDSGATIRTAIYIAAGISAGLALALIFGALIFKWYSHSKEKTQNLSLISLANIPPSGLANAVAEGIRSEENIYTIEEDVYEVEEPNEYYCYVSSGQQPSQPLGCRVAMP

T2: monkey TIM-3 protein with hFc tag (cTIM-3-hFc protein) (monkey; human)
T2 construct: Made in HEK293 cells; also called monkey TIM-3 extracellular domain protein; not shown: human IgG Fc fragment (hFc) of the pCpC vector
T2 chain: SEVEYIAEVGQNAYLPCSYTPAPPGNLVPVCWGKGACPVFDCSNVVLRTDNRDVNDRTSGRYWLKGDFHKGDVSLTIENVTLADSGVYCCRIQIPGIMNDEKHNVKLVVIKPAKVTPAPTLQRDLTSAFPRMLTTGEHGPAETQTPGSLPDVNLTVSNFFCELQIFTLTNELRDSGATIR

T3: human TIM-3 protein with hFc tag (hTIM-3-hFc protein) (human, UniProt Q8TDQ0 22-200)
T3 construct: also called immunogen 1; human TIM-3 extracellular domain protein; not shown: human IgG Fc fragment (hFc) of the pCpC vector
T3 sequence: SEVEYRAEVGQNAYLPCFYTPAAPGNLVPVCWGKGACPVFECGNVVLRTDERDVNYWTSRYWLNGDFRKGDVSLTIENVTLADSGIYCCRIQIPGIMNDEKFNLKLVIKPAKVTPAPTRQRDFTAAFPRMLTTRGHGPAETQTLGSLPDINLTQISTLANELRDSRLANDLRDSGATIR

B1: 57F4E5 fully human TIM-3 antibody (human IgG4, kappa) (antibody, V domains shown)
VH: EVQLVESGGGLVQPGGSLRLSCAASGFTFSSYWMSWVRQAPGKGLEWVANIKQDGSEKYYVDSVKGRFTISRDSAKNSLYLQMNSLRAEDTAMYFCARDSNFFDYWGQGTLVTVSS
VL: ETVMTQSPATLSVSPGERATLSCRASQSVSSNLAWYQRKPGQAPRLLIYFSSTRATGIPARFSGSGSGTEFTLTISSLQSEDFAVYYCQQYNNWPLTFGGGTKVEIK
B2: 34B6D8 fully human TIM-3 antibody (human IgG4, kappa) (antibody, V domains shown)
VH: EVQLVESGGGLVQPGGSLRLSCAASGFTFSTYWMTWVRQAPGKRLEWVANIKQGGGDKYYVDSVKGRFTISTDNAKNSLYLQMNSLRAEDTAVYYCARGSNWFDPWGQGTLVTVSS
VL: EIVMTQSPATLSMSPGERATLSCRASQSVYDNLAWYQQKPGQAPRLLIYGASTRATGIPARFSGSGSGTEFTLTISSLQSEDFALYYCQQYTHWPITFGQGTRLEIK
B3: 39E5H1 fully human TIM-3 antibody (human IgG4, kappa) (antibody, V domains shown)
VH: B2 VH with T31S, T35S, R44G, Q53R, G56S, D57E, K58R, T72G, L79V
VL: B2 VL with I2T, T10I, M13V, D31S, P40L, G50D, L85V, T92N, H93N
B4: 18D2H2 (TIM-3 antibody purified from hybridoma, chimeric antibody of Example 2) (antibody, V domains shown)
VH: B2 VH with G10D, K43R, R44G, G54D, G56S, D57A, I70L, T72R, N74D, P105Y
VL: B1 VL with S26N, S28N, S30Y, R38Q, F50D, S51A, I58F
notes: From hybridoma of Harbour H2L2 transgenic mice: human variable regions, rat constant regions
B5: 34B6D8 (TIM-3 antibody purified from hybridoma, chimeric antibody of Example 2) (antibody, V domains shown)
VH: B2 VH
VL: B2 VL
notes: as for B4
B6: 39E5H1 (TIM-3 antibody purified from hybridoma, chimeric antibody of Example 2) (antibody, V domains shown)
VH: B2 VH with T31S, T35S, R44G, Q53R, G56S, D57E, K58R, T72G, L79V
VL: B2 VL with I2T, T10I, M13V, D31S, P40L, G50D, L85V, T92N, H93N
notes: as for B4
B7: 57F4E5 (TIM-3 antibody purified from hybridoma, chimeric antibody of Example 2) (antibody, V domains shown)
VH: B1 VH
VL: B1 VL
notes: as for B4
B8: 134H3G6 (TIM-3 antibody purified from hybridoma, chimeric antibody of Example 2) (antibody, V domains shown)
VH: EVQLVESGGGLVQPGGSLRLSCAASGFTFSNSWMTWVRQAPGKGLEWVANIKQAGTEKYYVDSVKGRFTISRDNAKNSLYLQMNSLRAEDTAVYYCNSGSNYFDYWGQGTLVTVSS
VL: B1 VL with T2I, S26R, S28N, V29F, S30Y, R38Q, F50G, S51A
notes: as for B4
B9: 215A8F2 (TIM-3 antibody purified from hybridoma, chimeric antibody of Example 2) (antibody, V domains shown)
VH: QVQLQQWGAGLLKPSETLSLTCTVYGGSFSGYYWNWIRQPPGKGLEWLGEINHSGSTNYNPSLKRRVTISVDTSKNQFSLKLSSVTAADTAVYYCARVYYYGPFDFWGQGTLVTVSS
VL: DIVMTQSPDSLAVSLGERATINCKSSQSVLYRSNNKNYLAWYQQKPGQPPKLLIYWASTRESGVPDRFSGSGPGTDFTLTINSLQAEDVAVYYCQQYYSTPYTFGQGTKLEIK
notes: as for B4
B10: 7A4F10 (TIM-3 antibody purified from hybridoma, chimeric antibody of Example 2) (antibody, V domains shown)
VH: EVQLLESGGGLVQPGGSLRLSCAASGFTFRTHLISWVRQAPGKGLEWVAAITGSGGSTYYADSVKGRFIISRDNSKNTLFLQMNSLRAEDTAVYYCAKDGGSGSYDDFWGQGTLVTVSS
VL: ETVLTQSPVTLSLSPGERATLSCRASQSVGSYLAWYQQKPGQAPRLLIYDASNRATGIPARFSGSGSGTDFTLTISSLEPEDFAVYYCQQRSNWPPTFGQGTKVEIK
notes: as for B4

Target: T1, monkey TIM-3 on CHOK1 stable cell line …
Assay: FACS, CHOK1-cTIM-3 cells, 0 nM antibody

Point of comparison: B2, Mean fluorescence intensity 2.9. Against it:
- B1 — the same, 2.9
- B3 — higher, 3

Target: T1, monkey TIM-3 on CHOK1 stable cell line …
Assay: FACS, CHOK1-cTIM-3 cells, 40 nM antibody

Point of comparison: B1, Mean fluorescence intensity 269. Against it:
- B2 — higher, 336
- B3 — higher, 337

Target: T2, monkey TIM-3 protein with hFc tag …
Assay: ELISA, coated cTIM-3-hFc; antibody 0.0667 nM
Excerpt: (§1) The amino acid sequence 22-200 of the extracellular domain of the human TIM-3 protein described in the step of Example 1 (as shown in SEQ ID NO. 71 in the sequence listing) was cloned into a pCpC vector having a human IgG Fc fragment (hFc), and transfected into HEK293 cells. The cell culture medium was collected, and purified to obtain the human TIM-3 protein with hFc tag (herein referred to as hTIM-3-hFc protein). The amino acid sequence 22-201 of the extracellular domain of the monkey TIM-3 protein (as shown in SEQ ID NO. 72 in the sequence listing) was cloned into a pCpC vector having a human IgG Fc fragment (hFc), and transfected into HEK293 cells. The cell culture medium was collected, and purified to obtain the monkey TIM-3 protein with hFc tag (herein referred to as cTIM-3-hFc protein). […] The cell culture medium was collected, and purified to obtain the murine TIM-3 protein with hFc tag (herein referred to as mTIM-3-hFc protein). Purified human, monkey, and mouse TIM-3 extracellular domain proteins (hTIM-3-hFc, cTIM-3-hFc, and mTIM-3-hFc) were diluted with PBS to a final concentration of 1.0 μg/ml and then added to a 96-well ELISA plate with 100 μl per well. The plate was sealed with plastic film and incubated overnight at 4° C. The plate was washed 4 times with the plate washing solution (PBS+0.01% Tween20) on the next day, and added with the blocking solution (PBS+0.01% Tween20+1% BSA) and sealed at room temperature for 1-2 hours. The blocking solution was poured out. 50-100 μl of the antibody sample to be tested was added to each well. The plate was incubated at 37° C. for 1-2 hours, and washed 2-3 times with plate washing solution (PBS+0. 01% Tween20). HRP (horseradish peroxidase) labeled secondary antibody was added. The plate was incubated at 37° C. for 1-2 hours, and washed 2-3 times with plate washing solution (PBS+0. 01% Tween20). […] of TMB substrate was added to each well. After incubated at room temperature for 15-30 minutes, the plate was added with […] stop solution (1.0N HCl) to each well. An ELISA plate reader (TiterMax 384plus, Molecular Device) was used to read the A450 nm value.

Point of comparison: B6, OD450 1.98. Against it:
- B4 — lower, 0.74
- B5 — lower, 1.92
- B7 — higher, 2.68
- B8 — lower, 0.64
- B9 — lower, 1.5
- B10 — lower, 0.7

These binders were tested against T3, human TIM-3 protein with hFc tag … (assay: ELISA, coated hTIM-3-hFc; antibody 0 nM (blank)).
Excerpt: as §1

Point of comparison: B9, OD450 0.11. Against it:
- B4 — the same, 0.11
- B5 — higher, 0.12
- B6 — higher, 0.12
- B7 — higher, 0.12
- B8 — higher, 0.12
- B10 — the same, 0.11

Target: T2, monkey TIM-3 protein with hFc tag …
Assay: ELISA, coated cTIM-3-hFc; antibody 0 nM (blank)
Excerpt: as §1

Point of comparison: B8, OD450 0.55. Against it:
- B4 — the same, 0.55
- B5 — higher, 0.58
- B6 — higher, 0.59
- B7 — higher, 0.56
- B9 — higher, 0.57
- B10 — lower, 0.54
